To fix the notation:
B1: DLC1 (parent)
chain: AIQGISEKEKAEIEAKEACDWLRA
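Further: lentivirally expressed fusions sorted by FACS into six bins by GFP to DsRed ratio, PSI derived from sequencing read proportions per bin multiplied by bin number.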

In the series the parent is B1. As to the kind of experiment: protein stability index of a GFP-peptide fusion (GPS, HEK-293T) (PSI 1-6); higher = more stable. The conditions noted are these: c terminus: a fixed tail appended.
AIQGISEKEKAEIEAKRACDWLRA: the protein stability index stood at 3.7.
In the case of AIQGISEKEKAEIEAKIACDWLRA it was 4.12.
In the case of AIQGISEKEKAEIEAKWACDWLRA it was 3.27; in that of AIQGISEKEKAEIEAKVACDWLRA, 3.65.
Turning to AIQGISEKEKAELEAKEACDWLRA, the protein stability index amounted to 4.21.
Then AIQGISEKEKAEHEAKEACDWLRA, with 4.88.
In the case of AIQGISEKEKAEFEAKEACDWLRA it was 3.94.
Then AIQGISEKEKAEDEAKEACDWLRA, with 5.06.
As for AIQGSSEKEKAEIEAKEACDWLRA, the protein stability index was 4.8.
In the case of AIQGESEKEKAEIEAKEACDWLRA it was 4.35.
Consider AIQGKSEKEKAEIEAKEACDWLRA, for which the protein stability index stood at 4.71.
In the case of AIQGQSEKEKAEIEAKEACDWLRA it was 4.97; in that of AIQGASEKEKAEIEAKEACDWLRA, 4.77.
Then AIQGISEKEKAEIEAKEACDWLQA, with 5.25.
In the case of AIQGISEKEKAEIEAKEACDWLPA it was 4.7; in that of AIQGISEKEKAEIEAKEACDWLVA, 4.31.
Turning to AIQGISEKEKAEIEAKEACDWLGA, the protein stability index amounted to 4.42.
Then AIQGISEKEKAEIEAKEACDWLYA, with 3.8; and AIQGISEKEKAEIEAKEACDWLMA, with 4.45; and AIQGISEKEKAEIEAKEACDWLFA, with 4.33.
Then AIQGISEKEKAEIEAKEACDWLCA, with 4.73; and AIQGISEKEKAEIEAKEACDWLIA, with 4.68.
In the case of AIQGISEKEKAEIEAKEACDWLSA it was 4.95; in that of AIQGISEKEKAEIEAKEACDWLTA, 5.14; in that of AIQGISEKEKAEIEAKEACDWERA, 5.62.
In the case of AIQGISEKEKAEIEAKEACDWMRA, the protein stability index came to 4.73.
Regarding AIQGISEKEKAEIEAKEACDWCRA, the protein stability index is 4.17.
Then AIQGISEKEKAEIEAKEACDWYRA, with 4.22; and AIQGISEKEKAEIEAKEACDWVRA, with 4.73.
In the case of AIQGISEKEKAEIEAKEACDWIRA it was 4.98; in that of AIQGISEKEKAEIEAKEACDWQRA, 5.03; in that of AIQGISEKEKAEIEAKEACDWNRA, 5.24.
Then AIQGISEKEKAEIEAKEACDWPRA, with 5.2; and AIQGISEKEKAEIEAKEACDWTRA, with 4.82.
In the case of AIQGISEKEKANIEAKEACDWLRA, the protein stability index was 4.5.
Then AIQGISEKEKAFIEAKEACDWLRA, with 3.82; and AIQGISEKEKADIEAKEACDWLRA, with 4.43; and AIQGISEKEKAVIEAKEACDWLRA, with 4.17.
Then AIQGISEKEKATIEAKEACDWLRA, with 4.32.
Then AIQGISEKEKAAIEAKEACDWLRA, with 3.89; and AIQGISEKEKVEIEAKEACDWLRA, with 4.61.
Turning to AIQGISEKEKREIEAKEACDWLRA, the protein stability index was 4.23.
In the case of AIQGISEKEKCEIEAKEACDWLRA it was 4.32; in that of AIQGISEKEKPEIEAKEACDWLRA, 4.51.
In the case of AIQGISEKEKKEIEAKEACDWLRA it was 4.47.
Turning to AIQGISEKEKWEIEAKEACDWLRA, the protein stability index worked out at 3.53.
In the case of AIQGISEKEKSEIEAKEACDWLRA it was 4.79; in that of AIQGISEKEKHEIEAKEACDWLRA, 4.34.
Then AIQGISEKEKEEIEAKEACDWLRA, with 4.87; and AIQCISEKEKAEIEAKEACDWLRA, with 4.32.
Then AIQDISEKEKAEIEAKEACDWLRA, with 4.79.
For the variant AIQWISEKEKAEIEAKEACDWLRA, the protein stability index came out at 3.8.
In the case of AIQVISEKEKAEIEAKEACDWLRA it was 3.9; in that of AIQFISEKEKAEIEAKEACDWLRA, 4.24.
Then AIQLISEKEKAEIEAKEACDWLRA, with 3.27; and AIQQISEKEKAEIEAKEACDWLRA, with 4.46.
In the case of AIQKISEKEKAEIEAKEACDWLRA it was 4.26; in that of AIQAISEKEKAEIEAKEACDWLRA, 4.47.
As to AIQHISEKEKAEIEAKEACDWLRA, the protein stability index was found to be 4.36.
Then AIQGISEKEKAEIIAKEACDWLRA, with 3.81; and AIQGISEKEKAEIYAKEACDWLRA, with 3.91.
With AIQGISEKEKAEIMAKEACDWLRA, the protein stability index worked out at 3.59.
Regarding AIQGISEKEKAEIDAKEACDWLRA, the protein stability index was 4.58.
Then AIQGISEKEKAEILAKEACDWLRA, with 3.87; and AIQGISEKEKAEIRAKEACDWLRA, with 3.61; and AIQGISEKEKAEISAKEACDWLRA, with 3.93.
In the case of AIQGISEKEKAEIKAKEACDWLRA it was 3.5.
Regarding AIQGISEKEKAEIEAKEPCDWLRA, the protein stability index was 4.88.
In the case of AIQGISEKEKAEIEAKEFCDWLRA it was 3.82; in that of AIQGISEKEKAEIEAKELCDWLRA, 4.2.
In the case of AIQGISEKEKAEIEAKEHCDWLRA it was 4.8; in that of AIQGISEKEKAEIEAKERCDWLRA, 4.56; in that of AIQGISEKEKAEIEAKENCDWLRA, 4.42.
In the case of AIQGISEKEKAEIEAKEGCDWLRA it was 4.35; in that of AIQGISEKEKAEIEAKEYCDWLRA, 4.33; in that of AIQGISEKEKAEIEAKEICDWLRA, 4.14.
AIQGISEKEKAEIEAKEDCDWLRA: the protein stability index came to 4.89.
On to IIQGISEKEKAEIEAKEACDWLRA, for which the protein stability index came to 3.94.
For DIQGISEKEKAEIEAKEACDWLRA, the protein stability index worked out at 4.96.
Then MIQGISEKEKAEIEAKEACDWLRA, with 4.09; and EIQGISEKEKAEIEAKEACDWLRA, with 4.74.
In the case of VIQGISEKEKAEIEAKEACDWLRA it was 4.18; in that of WIQGISEKEKAEIEAKEACDWLRA, 3.23; in that of QIQGISEKEKAEIEAKEACDWLRA, 4.23.
In the case of AIYGISEKEKAEIEAKEACDWLRA it was 3.47.
AIWGISEKEKAEIEAKEACDWLRA: the protein stability index is 3.58.
In the case of AIFGISEKEKAEIEAKEACDWLRA it was 3.61; in that of AILGISEKEKAEIEAKEACDWLRA, 3.54.
As for AICGISEKEKAEIEAKEACDWLRA, the protein stability index amounted to 4.28.
Then AIVGISEKEKAEIEAKEACDWLRA, with 4.34; and AIHGISEKEKAEIEAKEACDWLRA, with 4.68.
Then AISGISEKEKAEIEAKEACDWLRA, with 4.56.
Turning to AIRGISEKEKAEIEAKEACDWLRA, the protein stability index was found to be 4.43.
Then AIKGISEKEKAEIEAKEACDWLRA, with 4.27.

These data come from the supplement of paper PMC10567573.
